From patent publication US20210008180A1, “FORMULATIONS CONTAINING MUCIN-AFFECTING PROTEASES” (MUCPHARM PTY LTD, priority 2018, published 2021)

Legend:
HT29 cells = test: Efficacy of Papain released from DC Beads in Transwell chamber; assay type: cell-based, human; details: 5 mg/ml Papain (500 μg/80 μl beads) loaded beads in Transwell chamber; after 3 hours
Description: Subsequently, experiments were conducted to determine the efficacy of the Papain released from the beads. In these experiments, HT29 cells (human colorectal cancer cell line) were seeded in 24 well plates. After 24 h, the plates were treated with 5 mg/ml Papain (500 μg/80 μl beads) loaded beads in a Transwell chamber. After every 3 h, the Transwell chamber containing beads was transferred to a fresh well. This process was continued up to 3 days.

[1] = Release of Papain from DC Beads (300-500 μm), azo-casein assay; assay type: physicochemical; details: 80 μL, loaded from 200 μL 5 mg/mL Papain, 6 hrs, 5 mL PBS pH 6.5
Description: 80 μL of DC Beads® (300-500 μm) were taken in a 1.5 mL centrifuge tube and washed twice with distilled water. 200 μL of a 5 mg/mL Papain solution was added and the mixture incubated at room temperature for 6 hrs with gentle agitation. The beads were then washed twice with distilled water and suspended in 5 mL PBS pH 6.5. The first sample of 250 μL was taken at 30 min, and thereafter samples were taken every hour for the next 16 hrs, with 250 μL PBS being replaced each time. The Papain concentration in the samples was measured by azo-casein assay and the cumulative release of Papain from the DC Beads as a function of time is set out in Graph shown below.

B1: Papain: plant-derived mucin-affecting protease enzyme extracted from papaya; loaded into DC Beads 300-500 μm (protein, UniProt P00784 134-345, looked up)
Papain: IPEYVDWRQKGAVTPVKNQGSCGSCWAFSAVVTIEGIIKIRTGNLNEYSEQELLDCDRRSYGCNGGYPWSALQLVAQYGIHYRNTYPYEGVQRYCRSREKGPYAAKTDGVRQVQPYNEGALLYSIANQPVSVVLEAAGKDFQLYRGGIFVGPCGNKVDHAVAAVGYGPNYILIKNSWGTGWGENGYIRIKRGTGNSYGVCGLYTSSFYPVKN
modifications: loaded into DC Beads
notes: plant-derived mucin-affecting protease enzyme extracted from papaya; loaded into DC Beads 300-500 μm
- effect of Papain released from the DC Beads on cells (HT29 cells): death of all cells
- duration of sustained release of Papain [1]: greater than 16 hours
